Assay results published in article PMC9631991 (Biochemistry, 2022).

Tests used:
[1] = biological target: pro-LC3B (residues 1-125) (human, UniProt Q9GZQ8 1-120); experiment: cell-based or functional assay
[2] = biological target: LC3B-115 (residues 1-115) (human, UniProt Q9GZQ8 1-115); experiment: ITC; 25 °C; 20 mM HEPES pH 7.5, 200 mM NaCl, 0.5 mM TCEP; 10~68 uM LC3B proteins in the cell, 10-fold higher concentration of ATG4b in the syringe; single-site binding model; conditions: both partners purified
LC3B-I (residues 1-120) = LC3B-I (residues 1-120) (human, UniProt Q9GZQ8 1-120); experiment: as above; conditions: both partners purified

Binder | fold decrease in KM of cleavage of the FRET substrate CFP-proLC3B-YFP, further fold against ATG4b-382 [1] [fold] | stoichiometry N [2] | Kd (LC3B-I (residues 1-120)) [µM] | stoichiometry N (LC3B-I (residues 1-120))
ATG4b-366 (domain or fragment) MDAATLTYDTLRFAEFEDFPETSEPVWILGRKYSIFTEKDEILSDVASRLWFTYRKNFPAIGGTGPTSDTGWGCMLRCGQMIFAQALVCRHLGRDWRWTQRKRQPDSYFSVLNAFIDRKDSYYSIHQIAQMGVGEGKSIGQWYGPNTVAQVLKKLAVFDTWSSLAVHIAMDNTVVMEEIRRLCRTSVPCAGATAFPADSDRHCNGFPAGAEVTNRPSPWRPLVLLIPLRLGLTDINEAYVETLKHCFMMPQSLGVIGGKPNSAHYFIGYVGEELIYLDPHTTQPAVEPTDGCFIPDESFHCQHPPCRMSIAELDPSIAVGFFCKTEDDFNDWCQQVKKLSLLGGALPMFELVELQPSHLACPDVLN | 2.6 |  |  | 
ATG4b WT (full-length ATG4b) (enzyme) MDAATLTYDTLRFAEFEDFPETSEPVWILGRKYSIFTEKDEILSDVASRLWFTYRKNFPAIGGTGPTSDTGWGCMLRCGQMIFAQALVCRHLGRDWRWTQRKRQPDSYFSVLNAFIDRKDSYYSIHQIAQMGVGEGKSIGQWYGPNTVAQVLKKLAVFDTWSSLAVHIAMDNTVVMEEIRRLCRTSVPCAGATAFPADSDRHCNGFPAGAEVTNRPSPWRPLVLLIPLRLGLTDINEAYVETLKHCFMMPQSLGVIGGKPNSAHYFIGYVGEELIYLDPHTTQPAVEPTDGCFIPDESFHCQHPPCRMSIAELDPSIAVGFFCKTEDDFNDWCQQVKKLSLLGGALPMFELVELQPSHLACPDVLNLSLDSSDVERLERFFDSEDEDFEILSL |  | 0.9 ± 0.2 | 4.7 | 0.9 ± 0.2
